Measurements reported in publication PMC5966295, “Crystal structures of murine and human Histamine-Releasing Factor (HRF/TCTP) and a model for HRF dimerisation in mast cell activation” (Molecular Immunology, 2018).

Target: the molecule itself
Test: crystal structure; hHRF-2 crystal form, 1.4 Å; crystals grown at 18 °C in 0.1 M MES pH6.0 and 20% (w/v) PEG 2000 MME; two molecules in the asymmetric unit, disulphide-linked dimer

B1: human Histamine-Releasing Factor (natural protein, UniProt P13693 1-172, looked up)
chain: MIIYRDLISHDEMFSDIYKIREIADGLCLEVEGKMVSRTEGNIDDSLIGGNASAEGPEGEGTESTVITGVDIVMNHHLQETSFTKEAYKKYIKDYMKSIKGKLEEQRPERVKPFMTGAAEQIKHILANFKNYQFFIGENMNPDGMVALLDYREDGVTPYMIFFKDGLEMEKC
notes: Histamine-Releasing Factor (HRF/TCTP), human, wild type; Met1 to Cys172, followed by the C-terminal purification tag Leu173-His180; The tag is ordered in the crystals and contributes about 25% of the hHRF-2 dimer interface; In hHRF-2 the two chains are joined by an intermolecular disulphide bond Cys172-Cys172; also called hHRF; HRF; source: prepared according to a previously described protocol …
stoichiometry N: 2
